This is an account of results in the supplement of paper PMC9170038.

In this series the test system is MS2 coat protein. Briefly: apparent KD of MS2 coat protein; designed switch direction (-1 OFF switch, 1 ON switch): -1; higher = weaker reporter binding. The gist of the method: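 Designed RNA switches were transcribed on Illumina chips by stalled E. coli RNA polymerase and titrated with SNAP-549-labelled MS2 coat protein from 0.7 or 1.5 nM, doubling to 3 µM. Step length ran from 0.8–1.5 h at the lowest concentration to 10–20 min at the highest. The apparent KD is the median over clusters for each design, from curve-fitted normalised cluster fluorescence.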

Setting [1] is: input ligand: microRNA oligo, concentration not stated.
The mark [2] stands for this setting: Eterna round: R95, input ligand: microRNA oligo, concentration not stated.

For “UGAGUAGAUCCGAAGGGAGACAUGAGGAUCACCCAUGUAUUAAGUUUUUAUGCUCGUCGCCUACGUAACCGUAGGAC [Eternabot (Original) Solution 2] (Eterna round: R97, puzzle: Sensor, turn-off variant 1)”, the “apparent KD of MS2 coat protein” value reads like this: (input ligand: FMN 200 uM) 344 nM; (input ligand: none) 360 nM.
With “UGAGUGCUGCGAGGAUAUACAUGAGGAUCACCCAUGUGGAUGUCUGAGGCUUUGCCUCAGACGAUGUAGAAGGCGCAGUACUCU [JL ENG2 1.20] (Eterna round: R96, puzzle: Exclusion NG 2)”, the “apparent KD of MS2 coat protein” value (input ligand: FMN 200 uM) amounted to 100 nM, the “apparent KD of MS2 coat protein” value under setting [1] turned out to be 15.2 nM and the “apparent KD of MS2 coat protein” value (input ligand: none) is 22.1 nM.
Taken in the same sequence, the figures for “UGAUCAGACCGAGGAUAUACAUGGAGGACGCACGUGAGUGCGUCCACUACAUGAGGAUCACCCAUGUAGAAGGCGGUCUGAUCU [JL ENG2 1.92] (Eterna round: R96, puzzle: Exclusion NG 2)” were 1100 nM, 130 nM and 144 nM.
In the same order, the values of “UGAUCAGACCGAGGAUAUAUAUGUAGGACCCACGUGAGUGGGUCCAGAACAUGAGGAUCACCCAUGUAGAAGGCGGUCUGAUCU [JL ENG2 1.88] (Eterna round: R96, puzzle: Exclusion NG 2)” are 19 nM, 11.5 nM and 16.2 nM.
On to “UGAUCCCAUGUCAGGAUAUAGAGGCGGUAGCCUGGCUAGAAGGGACAUGAGGAUCACCCAUGUCGGUUCUUGCC (puzzle: Brourd's mod of Exclusion 4)”, for which, under setting [2], the “apparent KD of MS2 coat protein” value worked out at 30.6 nM.
Take “UGAUCUAGCGGAGGAUAUACAUGAGGAUCACCCAUGUAGACUCUAUGACCGUAGUCGUGGAGAGUGUAGAAGGCCGCUAGAUCU [JL ENG2 3.75] (Eterna round: R96, puzzle: Exclusion NG 2)”: the “apparent KD of MS2 coat protein” value turned out to be 16.6 nM (input ligand: FMN 200 uM), 8.79 nM under setting [1] and 13.1 nM (input ligand: none).
For “UGAUCUAGCGGAGGAUAUACAUGAGGAUCACCCAUGUAGAUGAGUGUACCGUAGUGCACUAUUGUGUAGAAGGCCGCUAGAUCU [JL ENG2 3.63] (Eterna round: R96, puzzle: Exclusion NG 2)”, the “apparent KD of MS2 coat protein” value by setting is: (input ligand: FMN 200 uM) 69.9 nM; under setting [1], 13.7 nM; (input ligand: none) 19.8 nM.
In the same order, the values of “UGAUCUAGCGGAGGAUAUACAUGAGGAUCACCCAUGUAUAGGCUAUGACCGUAGUCGUGGCACGUGUAGAAGGCCGCUAGAUCU [JL ENG2 3.77] (Eterna round: R96, puzzle: Exclusion NG 2)” are 12.7 nM, 8.1 nM and 12.8 nM.
“UGAUGGAGGCAGGAUAUUUUGAUGGAUACGAUAAAAGAAGGGCUGACAUGAGGAUCACCCAUGUGGAUAGCUCA [Eternabot (L1) Solution 39] (Eterna round: R97, puzzle: Exclusion 6)”: the “apparent KD of MS2 coat protein” value was found to be 17.8 nM (input ligand: FMN 200 uM) and 14.4 nM (input ligand: none).
As to “UGAUUCGGAGGAUAUACAUGAGGAUCACCCAUGUUACCGGAAGGUAGGAGAGGUCGCCGUAGAAGGCUGCACAU [Eternabot (Original) Solution 7] (Eterna round: R97, puzzle: Exclusion 3)”, the “apparent KD of MS2 coat protein” value (input ligand: FMN 200 uM) worked out at 30.4 nM and the “apparent KD of MS2 coat protein” value (input ligand: none) came out at 31.5 nM.
Turning to “UGCAGACGAGGAUAUAGAUUUGAUAACAUGAGGAUCACCCAUGUGAUCGAUAGAUCAGAUUUAGAAGGUGUCUGCA [E5/8-B2] (Eterna round: R97, puzzle: Exclusion 5)”, the “apparent KD of MS2 coat protein” value amounted to 579 nM (input ligand: FMN 200 uM) and 431 nM (input ligand: none).
Taken in the same sequence, the figures for “UGCAGACGAGGAUAUGAUCAAUAAUACAUGAGGAUCACCCAUGUAAUACUGAUCCAUGGAUCAGAAGGUGUCUGCA [E5/5-B2] (Eterna round: R97, puzzle: Exclusion 5)” were 19.5 nM and 17.5 nM.
In the case of “UGCAUGCUAGGAUAUACGGGACAUUAGGGUUCGUUGUAUGGACAUGAGGAUCACCCAUGUAGAAGGAGCGUGCU [Mod5 of JL-ex2-2.15 mat747 mod] (puzzle: Exclusion 2)”, under setting [2], the “apparent KD of MS2 coat protein” value was determined as 26 nM.
In the case of “UGCAUGGUAGGAUAUACGGAACAUUAGGGUUUGUUAUGUGGACAUGAGGAUCACCCAUGUAGAAGGGCCGUGCU [JL-ex2-2.15 mat747 mod] (puzzle: Exclusion 2)”, the “apparent KD of MS2 coat protein” value under setting [2] was found to be 40.4 nM.
Take “UGCAUGUGAGGAUAUGUACCUGAGUGCUUUGCGCUCAGGAAACAGAAGGCACAUGAGGAUCACCCAUGUGAAAA [jl-ex4-4.46 ViennaUCT mod] (Eterna round: R97, puzzle: Exclusion 4)”: the “apparent KD of MS2 coat protein” value is, setting by setting: (input ligand: FMN 200 uM) 74.1 nM; (input ligand: none) 208 nM.
For “UGCGGGCUUUUGAGACCUCACAUGAGGAUCACCCAUGUGCUUGUCUUGUGGGUCGGUAGGUCGUUGGCUGACUGACG [Sensor-V1 #97] (Eterna round: R97, puzzle: Sensor, turn-off variant 1)”, the “apparent KD of MS2 coat protein” value runs as follows: (input ligand: FMN 200 uM) 15.5 nM; (input ligand: none) 13.4 nM.
As to “UGCUACGGAGGAUAUACAUGAGGAUCACCCAUGUGAUAGAUUAUCGCGAAAGCGUAAUGUAGAAGGCCGUAGCU [jl-ex3-4.11 jl mod] (Eterna round: R97, puzzle: Exclusion 3)”, the “apparent KD of MS2 coat protein” value stood at 556 nM (input ligand: FMN 200 uM) and 54.4 nM (input ligand: none).
Take “UGCUGACGAGGAUAUACAUGAGGAUCACCCAUGUUGGUCAAGCGACUUCGGUCGCAAUGUAGAAGGCGUCAGCA [E3/8-A5] (Eterna round: R97, puzzle: Exclusion 3)”: the “apparent KD of MS2 coat protein” value came out at 290 nM (input ligand: FMN 200 uM) and 513 nM (input ligand: none).
For “UGCUGACGAGGAUAUACAUGAGGAUCACCCAUGUUGGUCAAGCGACUUCGGUCGCAAUGUAGAAGGCGUCAGCU [E3/8-A6] (Eterna round: R97, puzzle: Exclusion 3)”, the “apparent KD of MS2 coat protein” value turned out to be 186 nM (input ligand: FMN 200 uM) and 395 nM (input ligand: none).
Take “UGUACGAUGCGUGCUGACAUGCGUCGUGCAGCAGGUGGAACAUGAGGAUCACCCAUGUCCUCAUUUGCUCGUCUUAU [Mat - Sensor v3 - Turn-off var 2 - D21] (Eterna round: R96, puzzle: Sensor v3, turn-off variant 2)”: the “apparent KD of MS2 coat protein” value (input ligand: FMN 200 uM) amounted to 35.1 nM, the “apparent KD of MS2 coat protein” value under setting [1] stood at 104 nM and the “apparent KD of MS2 coat protein” value (input ligand: none) was determined as 39.1 nM.
As for “UGUACGAUGCGUGCUGACAUGCGUCGUGCAGCAGGUGGAACAUGAGGAUCACCCAUGUCCUCAUUUGCUCGUCUUAU [Mat - Sensor v3 - Turn-off var 2 - D21] (puzzle: Sensor v3, turn-off variant 2)”, the “apparent KD of MS2 coat protein” value is 35.2 nM (Eterna round: R95, input ligand: FMN 200 uM); 155 nM under setting [2]; 34.6 nM (Eterna round: R95, input ligand: none).
In the case of “UGUCAAGCAGGAUAUGCACGUAAUAACAUGAGGAUCACCCAUGUGACCGAUUUAUAUUCUGCAGAAGGGCUUGUUU [LRO-Excl5-19-mod of Erxesoan mod by Eli Fisker] (Eterna round: R97, puzzle: Exclusion 5)”, the “apparent KD of MS2 coat protein” value (input ligand: FMN 200 uM) worked out at 109 nM and the “apparent KD of MS2 coat protein” value (input ligand: none) is 26.7 nM.
Turning to “UGUGUGCUGCGAGGAUAUACAUGAGGAUCACCCAUGUAAAUGUGUGAGGCUUUGCCUCACACAAUGUAGAAGGCGCAGUACACU [Mat - Exclusion NG 2 - Mod of JL - D4] (Eterna round: R96, puzzle: Exclusion NG 2)”, the “apparent KD of MS2 coat protein” value (input ligand: FMN 200 uM) is 16.9 nM, the “apparent KD of MS2 coat protein” value under setting [1] worked out at 9.63 nM and the “apparent KD of MS2 coat protein” value (input ligand: none) was determined as 11.6 nM.
In the case of “UGUUCGCGAGGAUAUGCAUUCGAGUCCAUUACGUGUCUGGGACUUGAGGAUCACCCAAGUAGAAGGCGUCUCAC [salish99_ex2_r4_645] (Eterna round: R97, puzzle: Exclusion 2)”, the “apparent KD of MS2 coat protein” value is, setting by setting: (input ligand: FMN 200 uM) 115 nM; (input ligand: none) 122 nM.
On to “UGUUGUCGCGCAGGAUAUGUAUGAGGAUCACCCAUUAAUAAAUUUUAACCACGAGGAUCACCCGUGUAGAAGGGCGCGACAACA [pwkr exNG2 2xF5 1xFMN.17] (Eterna round: R96, puzzle: Exclusion NG 2)”, for which the “apparent KD of MS2 coat protein” value (input ligand: FMN 200 uM) amounted to 36.6 nM, the “apparent KD of MS2 coat protein” value under setting [1] came out at 19.7 nM and the “apparent KD of MS2 coat protein” value (input ligand: none) came out at 33.1 nM.
Turning to “UGUUGUCGCGUAGGAUAUGGCCAACAGGCCGUAGGAUAUGGGAAACCAGAAGGACCGCCAACAGGCGAGAAGGACGGGACAACU [pwkr exNG2 2xF7 2xFMN.21] (Eterna round: R96, puzzle: Exclusion NG 2)”, the “apparent KD of MS2 coat protein” value was 127 nM (input ligand: FMN 200 uM), 49.4 nM under setting [1] and 72 nM (input ligand: none).
Taken in the same sequence, the figures for “UGUUGUUACGCAGGAUAUGUAUGAGGAUCACCCAUAAAACACACACUCCCAUGAGGAUCACCCAUGUAGAAGGGCGGGUUAACA [pwkr exNG2 2xF5 1xFMN.8] (Eterna round: R96, puzzle: Exclusion NG 2)” were 124 nM, 54.9 nM and 80.8 nM.
In the same order, the values of “UGUUGUUACGUAGGAUAUUGUCAACAGGCAGUAGGAUAUGCGAAAGCAGAAGGACCGCCAACAGGCGAGAAGGACGGGUUAACA [pwkr exNG2 2xF7 2xFMN.3] (Eterna round: R96, puzzle: Exclusion NG 2)” are 614 nM, 514 nM and 42.7 nM.
In the case of “UGUUGUUGCGCAGGAUAUUGCCAACAGGCAGUAGGAUAUCCGAAAGGAGAAGGACCGCCAACAGGCGAGAAGGGCGGGACAACU [pwkr exNG2 2xF7 2xFMN.12] (Eterna round: R96, puzzle: Exclusion NG 2)”, the “apparent KD of MS2 coat protein” value (input ligand: FMN 200 uM) worked out at 93.9 nM, the “apparent KD of MS2 coat protein” value under setting [1] turned out to be 44.5 nM and the “apparent KD of MS2 coat protein” value (input ligand: none) came to 64.3 nM.
